Article PMC9457175

Target: KARS1 (human), Q15046
Assay: RNA immunoprecipitation with qRT-PCR
Conditions: remark: other sources report otherwise

Chain of KARS1 (human), Q15046 (Q15046 whole entry): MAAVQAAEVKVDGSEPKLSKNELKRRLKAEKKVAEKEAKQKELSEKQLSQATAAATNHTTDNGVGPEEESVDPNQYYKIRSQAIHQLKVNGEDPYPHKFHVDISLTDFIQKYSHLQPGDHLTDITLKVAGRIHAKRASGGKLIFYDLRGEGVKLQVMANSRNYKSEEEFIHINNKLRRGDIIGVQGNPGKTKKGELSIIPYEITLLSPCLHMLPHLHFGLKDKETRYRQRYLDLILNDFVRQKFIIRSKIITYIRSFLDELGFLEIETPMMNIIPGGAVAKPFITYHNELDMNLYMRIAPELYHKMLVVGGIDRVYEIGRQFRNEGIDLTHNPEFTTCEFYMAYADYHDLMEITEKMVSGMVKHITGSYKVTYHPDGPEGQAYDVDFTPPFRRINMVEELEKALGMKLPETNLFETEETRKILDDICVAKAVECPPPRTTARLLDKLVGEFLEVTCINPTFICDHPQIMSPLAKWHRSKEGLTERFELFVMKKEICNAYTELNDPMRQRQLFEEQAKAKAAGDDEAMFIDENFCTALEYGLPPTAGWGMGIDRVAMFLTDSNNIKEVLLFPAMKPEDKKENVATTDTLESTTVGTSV

fold enrichment of mRNA (anti-FLAG RIP over IgG): 9.7 fold
B1: AIMP1, Q12904 (natural protein)
chain: MANNDAVLKRLEQKGAEADQIIEYLKQQVSLLKEKAILQATLREEKKLRVENAKLKKEIEELKQELIQAEIQNGVKQIPFPSGTPLHANSMVSENVIQSTAVTTVSSGTKEQIKGGTGDEKKAKEKIEKKGEKKEKKQQSIAGSADSKPIDVSRLDLRIGCIITARKHPDADSLYVEEVDVGEIAPRTVVSGLVNHVPLEQMQNRMVILLCNLKPAKMRGVLSQAMVMCASSPEKIEILAPPNGSVPGDRITFDAFPGEPDKELNPKKKIWEQIQPDLHTNDECVATYKGVPFEVKGKGVCRAQTMSNSGIK
